Measurements reported in article PMC10786891, “Massively parallel profiling of RNA-targeting CRISPR-Cas13d”.
Numbering of substitutions follows the chain as printed. Names and notes keep the numbering of the source.

T1: EsCas13d, nuclease-dead (Eubacterium siraeum, UniProt B0MS50, R295A;H300A;R849A;H854A)
T1 sequence: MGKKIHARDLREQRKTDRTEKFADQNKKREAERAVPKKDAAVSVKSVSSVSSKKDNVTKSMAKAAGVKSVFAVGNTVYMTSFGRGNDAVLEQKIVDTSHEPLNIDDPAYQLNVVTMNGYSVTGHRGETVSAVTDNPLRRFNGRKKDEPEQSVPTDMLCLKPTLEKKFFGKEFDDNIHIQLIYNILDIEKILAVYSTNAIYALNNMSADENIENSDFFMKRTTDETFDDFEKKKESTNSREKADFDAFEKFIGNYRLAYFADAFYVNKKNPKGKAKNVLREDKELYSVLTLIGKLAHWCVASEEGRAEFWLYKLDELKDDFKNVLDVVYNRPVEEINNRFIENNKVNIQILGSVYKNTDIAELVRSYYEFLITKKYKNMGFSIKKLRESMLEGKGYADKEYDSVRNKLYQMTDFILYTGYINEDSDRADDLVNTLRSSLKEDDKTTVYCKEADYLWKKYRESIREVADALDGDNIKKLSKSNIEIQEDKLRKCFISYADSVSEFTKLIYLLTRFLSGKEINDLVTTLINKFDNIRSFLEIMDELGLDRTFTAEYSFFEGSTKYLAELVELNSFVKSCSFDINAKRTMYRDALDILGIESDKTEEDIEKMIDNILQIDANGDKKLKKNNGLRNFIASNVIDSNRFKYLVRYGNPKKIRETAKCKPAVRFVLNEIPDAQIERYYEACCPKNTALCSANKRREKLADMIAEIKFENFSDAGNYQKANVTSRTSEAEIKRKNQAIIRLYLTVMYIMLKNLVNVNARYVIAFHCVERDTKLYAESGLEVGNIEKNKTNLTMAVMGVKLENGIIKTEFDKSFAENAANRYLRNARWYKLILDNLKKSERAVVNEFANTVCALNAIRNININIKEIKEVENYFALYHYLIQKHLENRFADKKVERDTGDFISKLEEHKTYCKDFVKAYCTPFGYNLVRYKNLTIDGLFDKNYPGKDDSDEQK

B1: target 1 insA 3' of 10,insU 3' of 1 (mixed)
RNA 1: CACCCGUGCAAAAAUGCAGGGGUCUAAAACUGAGCGGAUAACCUCUCUAUGG
RNA 2: GGGAAUGGAUCCACAUCUACGAAUUCGUACCAUAGAGAGGUUAAUCCGCUCAUCCGAGAUCGGAAGAGCACACGU
B2: target 1 insC 3' of 22,insU 3' of 17 (mixed)
RNA 1: B1 RNA 1
RNA 2: GGGAAUGGAUCCACAUCUACGAAUUCGUACCCAUAGUAGAGGUUAUCCGCUCACCGAGAUCGGAAGAGCACACGU
B3: target 1 A18U,C22U (mixed)
RNA 1: B1 RNA 1
RNA 2: GGGAAUGGAUCCACAUCUACGAAUUCGUAUCAUUGAGAGGUUAUCCGCUCACCGAGAUCGGAAGAGCACACGU
B4: target 1 insG 3' of 18,insU 3' of 9 (mixed)
RNA 1: B1 RNA 1
RNA 2: GGGAAUGGAUCCACAUCUACGAAUUCGUACCAUAGGAGAGGUUAUUCCGCUCACCGAGAUCGGAAGAGCACACGU
B5: target 1 insC 3' of 15,insG 3' of 8 (mixed)
RNA 1: B1 RNA 1
RNA 2: B4 RNA 2 with G36A, A37G, G38C, U46G
B6: target 1 insG 3' of 16,insU 3' of 14 (mixed)
RNA 1: B1 RNA 1
RNA 2: B4 RNA 2 with G36A, A37G, G40U, U42G, A44U, U45A
B7: target 1 insG 3' of 7,insA 3' of 4 (mixed)
RNA 1: B1 RNA 1
RNA 2: B1 RNA 2 with A44U, U45C, C46G, U50A, C51U, A52C, U53A
B8: target 1 insU 3' of 13,insC 3' of 9 (mixed)
RNA 1: B1 RNA 1
RNA 2: B4 RNA 2 with G36A, A37G, G38A, A39G, G40U, U45C
B9: target 1 A9C,U11A (mixed)
RNA 1: B1 RNA 1
RNA 2: B3 RNA 2 with U30C, U34A, U41A, A43C
B10: target 1 insC 3' of 19,insA 3' of 17 (mixed)
RNA 1: B1 RNA 1
RNA 2: B2 RNA 2 with C32A, A33U, U34C, U37A
B11: target 1 A1C,U11A (mixed)
RNA 1: B1 RNA 1
RNA 2: B3 RNA 2 with U30C, U34A, U41A, A51C
B12: target 1 insG 3' of 19,insG 3' of 19 (mixed)
RNA 1: B1 RNA 1
RNA 2: B2 RNA 2 with C32A, A33U, U34G, A35G, G36A, U37G
B13: target 1 insA 3' of 12,insA 3' of 5 (mixed)
RNA 1: B1 RNA 1
RNA 2: B1 RNA 2 with U41A, A43U, C49A, U50C, C51U, A52C, U53A
B14: target 1 A1G,U11A (mixed)
RNA 1: B1 RNA 1
RNA 2: B3 RNA 2 with U30C, U34A, U41A, A51G
B15: target 1 insA 3' of 13,insA 3' of 13 (mixed)
RNA 1: B1 RNA 1
RNA 2: B2 RNA 2 with C32A, A33U, U34A, A35G, G36A, U37G, G41A
B16: target 1 insG 3' of 21,insU 3' of 2 (mixed)
RNA 1: B1 RNA 1
RNA 2: GGGAAUGGAUCCACAUCUACGAAUUCGUACCGAUAGAGAGGUUAUCCGCUCUACCGAGAUCGGAAGAGCACACGU
B17: target 1 insU 3' of 14,insU 3' of 2 (mixed)
RNA 1: B1 RNA 1
RNA 2: B1 RNA 2 with G39U, U41G, A43U, A52U, U53A
B18: target 1 insC 3' of 20,insC 3' of 14 (mixed)
RNA 1: B1 RNA 1
RNA 2: B2 RNA 2 with C32A, A33C, U37A, A38G, G39A, A40C
B19: target 1 insG 3' of 9,insG 3' of 7 (mixed)
RNA 1: B1 RNA 1
RNA 2: B1 RNA 2 with A44G, C47G, G48C, C49G, U50C, C51U, A52C, U53A
B20: target 1 insA 3' of 10,insC 3' of 1 (mixed)
RNA 1: B1 RNA 1
RNA 2: B1 RNA 2 with U53C
B21: target 1 insA 3' of 10,insG 3' of 1 (mixed)
RNA 1: B1 RNA 1
RNA 2: B1 RNA 2 with U53G
B22: target 1 C7G,A9C (mixed)
RNA 1: B1 RNA 1
RNA 2: B3 RNA 2 with U30C, U34A, A43C, C45G
B23: target 1 insA 3' of 15,insG 3' of 7 (mixed)
RNA 1: B1 RNA 1
RNA 2: B4 RNA 2 with G36A, A37G, G38A, U46C, C47G
B24: target 1 C4A,U8A (mixed)
RNA 1: B1 RNA 1
RNA 2: B3 RNA 2 with U30C, U34A, U44A, C48A
B25: target 1 U3G,U10C (mixed)
RNA 1: B1 RNA 1
RNA 2: B3 RNA 2 with U30C, U34A, U42C, U49G
B26: target 1 insC 3' of 22,insA 3' of 22 (mixed)
RNA 1: B1 RNA 1
RNA 2: B2 RNA 2 with C32A, A33C, U34A, A35U, G36A, U37G
B27: target 1 insA 3' of 10,insA 3' of 2 (mixed)
RNA 1: B1 RNA 1
RNA 2: B1 RNA 2 with U53A
B28: target 1 G12U,G13U (mixed)
RNA 1: B1 RNA 1
RNA 2: B3 RNA 2 with U30C, U34A, G39U, G40U
B29: target 1 insA 3' of 10,insC 3' of 10 (mixed)
RNA 1: B1 RNA 1
RNA 2: B4 RNA 2 with G36A, A37G, G38A, A39G, G41U, U43A, A44C, U45A
B30: target 1 insU 3' of 17,insC 3' of 3 (mixed)
RNA 1: B1 RNA 1
RNA 2: B4 RNA 2 with G36U, U46C, C48G, G49C, C50U, U51C
B31: target 1 insG 3' of 21,insA 3' of 13 (mixed)
RNA 1: B1 RNA 1
RNA 2: B2 RNA 2 with C32G, U37A, A38G, G39A, A40G, G41A
B32: target 1 C7G,U8C (mixed)
RNA 1: B1 RNA 1
RNA 2: B3 RNA 2 with U30C, U34A, U44C, C45G
B33: target 1 insC 3' of 22,insC 3' of 8 (mixed)
RNA 1: B1 RNA 1
RNA 2: B4 RNA 2 with A32C, U33A, A34U, G35A, U46C

The binders below were run against T1, EsCas13d, nuclease-dead (assay: crRNA (strand 1, pre-loaded); Mg2+; 40 mM Tris-HCl pH 7.5, 150 mM NaCl, 6 mM MgCl2, 1 mM DTT, 0.1% Tween-20, 0.2 mg/ml BSA; 25 C; 10 min per concentration, then washed). Conditions: tags: His6-TwinStrep-SUMO cleaved; N-terminal SNAP kept (SNAP-Surface 488); label: 3' end held by stalled T7 RNA polymerase.

| Binder | Kd [nM] |
| --- | --- |
| B1 | 13.9 ± 0.8 |
| B2 | 25.2 ± 2.7 |
| B3 | 74 ± 10 |
| B4 | 71 ± 10 |
| B5 | 23.3 ± 2.2 |
| B6 | 25.4 ± 2.4 |
| B7 | 5.49 ± 0.24 |
| B8 | 18.8 ± 2.4 |
| B9 | 59 ± 13 |
| B10 | 49 ± 7 |
| B11 | 44 ± 10 |
| B12 | 56 ± 15 |
| B13 | 17.4 ± 1.6 |
| B14 | 34 ± 4 |
| B15 | 7.9 ± 0.4 |
| B16 | 70 ± 9 |
| B17 | 57 ± 8 |

| Binder | Kd [nM] |
| --- | --- |
| B18 | 3.1 ± 0.5 |
| B19 | 10.7 ± 0.4 |
| B20 | 12.6 ± 0.6 |
| B21 | 14.4 ± 1.2 |
| B22 | 9.26 ± 0.33 |
| B23 | 6.15 ± 0.19 |
| B24 | 25.3 ± 2.1 |
| B25 | 14 ± 0.6 |
| B26 | 10 ± 0.9 |
| B27 | 14 ± 0.8 |
| B28 | 7.2 ± 0.5 |
| B29 | 12.9 ± 1.3 |
| B30 | 29 ± 5 |
| B31 | 44 ± 5 |
| B32 | 10.7 ± 0.4 |
| B33 | 18 ± 1.8 |
